{"source": "paper PMC2188490", "test_in_all_cases": "kinetic titration of prothrombinase activity", "key": {"[1]": {"target": "factor V/Va (mixture of nonactivated and activated factor V) purified from rabbit plasma (rabbit)"}, "[2]": {"target": "factor V/Va (mixture of nonactivated and activated factor V) purified from rabbit plasma (rabbit)", "remark": "listed apart in the source"}, "[3]": {"target": "high-affinity factor Xa receptor on cultured rabbit alveolar macrophages (rabbit (endogenous in alveolar macrophages))"}}, "note": "pKd: −log10 of the molar value. Where two headings read alike, the source gives them in different places."}
{"substance": "factor Xa (enzyme)", "values": [{"measurement": "pKd", "setting": "[1]", "value": 9.09}, {"measurement": "pKd", "setting": "[2]", "value": 9.22}, {"measurement": "pKd", "setting": "[3]", "value": 9.68}]}
